Measured values: patent US20100184697A1 (U S OF AMERICA AS REPRESENTED BY THE SECRETAR, published 2010)
Square brackets hold non-standard residues; d marks the D form. Ends that are not written are not given here. rhodamine = not defined here; Nle = CCCC[C@H](N)C(=O)O

Legend:
[1] = molecular target: T1, STAT3 tagged with eGFP on its N-terminus (UniProt P40763 1-770); experiment: FRET efficiency (1-D0/D1) by rhodamine photobleaching in living cells
T1 construct: Stably expressed inside living HEK293 cells; also called eGFP-STAT3; not shown: eGFP (enhanced green fluorescent protein) tag
Text: (§1) An additional cysteine residue was positioned at the C-terminus of penetratin to facilitate labeling. Excitation of eGFP (donor) was facilitated using a 488-nm light source, and the emission spectrum was detected. In the absence of energy transfer between eGFP and rhodamine, excitation of eGFP would lead to an emission peak at 520-540 nm, whereas energy transfer from eGFP to an adjacent rhodamine fluorochrome acceptor would cause an emission in the 560-600 nm range. […] To confirm that FRET was occurring, acceptor photobleaching was performed with a 561 nm laser using an LSM 510 confocal microscope (Zeiss).
(§2) Excitation of eGFP was facilitated, and the emission spectrum detected, in accordance with the methods described in Example 6. FRET efficiency was calculated using equation 1-D0/D1, where D0 is fluorescence intensity of eGFP before rhodamine photobleaching and D1 is the intensity after rhodamine photobleaching.

[2] = molecular target: T2, eGFP-STAT1 (UniProt P42224 1-750); experiment: as above
T2 construct: Expressed inside living cells; not shown: eGFP (enhanced green fluorescent protein) tag
T2 sequence (looked up): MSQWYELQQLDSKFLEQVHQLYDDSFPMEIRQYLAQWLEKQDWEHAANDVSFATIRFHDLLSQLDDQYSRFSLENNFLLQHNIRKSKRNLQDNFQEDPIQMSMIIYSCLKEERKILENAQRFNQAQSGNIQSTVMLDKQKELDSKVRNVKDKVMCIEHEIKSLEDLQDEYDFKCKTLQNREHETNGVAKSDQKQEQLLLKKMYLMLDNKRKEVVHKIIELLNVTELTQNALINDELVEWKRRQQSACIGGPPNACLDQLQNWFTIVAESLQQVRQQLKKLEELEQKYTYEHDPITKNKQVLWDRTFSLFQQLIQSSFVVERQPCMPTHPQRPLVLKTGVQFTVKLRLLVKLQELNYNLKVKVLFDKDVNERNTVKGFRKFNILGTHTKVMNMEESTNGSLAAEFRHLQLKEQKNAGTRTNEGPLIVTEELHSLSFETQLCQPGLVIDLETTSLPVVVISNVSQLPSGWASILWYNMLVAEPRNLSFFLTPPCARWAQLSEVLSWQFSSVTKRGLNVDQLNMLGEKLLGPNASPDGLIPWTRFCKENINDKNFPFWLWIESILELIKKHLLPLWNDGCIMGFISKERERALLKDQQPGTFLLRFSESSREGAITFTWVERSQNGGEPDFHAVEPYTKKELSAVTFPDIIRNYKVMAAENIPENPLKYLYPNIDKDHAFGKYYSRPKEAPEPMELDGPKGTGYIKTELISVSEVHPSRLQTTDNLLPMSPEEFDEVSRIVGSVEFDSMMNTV
Text: as §1, §2

[3] = molecular target: T3, eGFP; experiment: as above
T3 construct: Control, expressed inside living cells
Text: as §1, §2

[4] = molecular target: T2, eGFP-STAT1; experiment: FRET (eGFP donor, rhodamine acceptor, acceptor photobleaching) in living cells

T1 sequence (P40763 whole entry): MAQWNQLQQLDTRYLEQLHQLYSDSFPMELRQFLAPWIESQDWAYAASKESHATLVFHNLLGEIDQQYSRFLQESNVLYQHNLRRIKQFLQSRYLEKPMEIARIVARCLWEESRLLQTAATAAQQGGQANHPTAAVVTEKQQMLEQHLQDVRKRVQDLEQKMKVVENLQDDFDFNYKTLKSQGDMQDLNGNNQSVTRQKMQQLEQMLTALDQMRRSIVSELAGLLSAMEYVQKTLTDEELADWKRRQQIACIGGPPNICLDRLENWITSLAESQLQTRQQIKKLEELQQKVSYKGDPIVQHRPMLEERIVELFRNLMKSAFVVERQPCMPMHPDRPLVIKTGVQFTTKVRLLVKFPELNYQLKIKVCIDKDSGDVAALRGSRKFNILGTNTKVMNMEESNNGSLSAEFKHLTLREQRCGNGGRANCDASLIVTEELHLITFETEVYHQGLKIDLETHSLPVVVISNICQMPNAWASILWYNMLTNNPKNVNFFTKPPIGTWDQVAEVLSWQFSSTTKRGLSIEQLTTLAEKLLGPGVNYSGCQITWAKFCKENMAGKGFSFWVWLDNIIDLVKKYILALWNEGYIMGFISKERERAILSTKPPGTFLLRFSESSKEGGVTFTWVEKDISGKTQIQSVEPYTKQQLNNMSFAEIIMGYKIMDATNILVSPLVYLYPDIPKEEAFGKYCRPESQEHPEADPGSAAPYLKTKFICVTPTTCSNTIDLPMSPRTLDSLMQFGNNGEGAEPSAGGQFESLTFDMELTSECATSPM

- FRET efficiency [1]: 90.8%
- FRET efficiency [2]: ~12.8%
- FRET efficiency [3]: ~15.2%
- binding result [4]: no binding
B1: rhodamine-labeled STAT3-HEL2A-2 (peptide)
peptide: LDTRYLEQLHKLYRQIKIWFPNRR[Nle]KWKKC(rhodamine)
modifications: not fully specified; reading uncertain
notes: Synthetic peptide; also called STAT3-HEL2A-2 labeled with rhodamine
